# Measured values as given in US11571484B2, “Compositions that target tumor-associated macrophages and methods of use therefor” (Sanford Burnham Prebys Medical Discovery Institute, priority 2017, dated 2023).
# Ends that are not written are not given here. FAM = 5(6)-carboxyfluorescein; Ahx = NCCCCCC(=O)O
# Tests used:
# [1] = target: T1, recombinant mouse macrophage mannose receptor rmMMR/CD206 (Mus musculus, UniProt Q61830); experiment: Fluorescence anisotropy assay with mouse recombinant CD206; format: binding; conditions: 50 nM FAM peptide, 1 μM protein, 25 °C
# T1 construct: purchased R&D Systems 2535-MM-050
# T1 sequence (Q61830 20-1456): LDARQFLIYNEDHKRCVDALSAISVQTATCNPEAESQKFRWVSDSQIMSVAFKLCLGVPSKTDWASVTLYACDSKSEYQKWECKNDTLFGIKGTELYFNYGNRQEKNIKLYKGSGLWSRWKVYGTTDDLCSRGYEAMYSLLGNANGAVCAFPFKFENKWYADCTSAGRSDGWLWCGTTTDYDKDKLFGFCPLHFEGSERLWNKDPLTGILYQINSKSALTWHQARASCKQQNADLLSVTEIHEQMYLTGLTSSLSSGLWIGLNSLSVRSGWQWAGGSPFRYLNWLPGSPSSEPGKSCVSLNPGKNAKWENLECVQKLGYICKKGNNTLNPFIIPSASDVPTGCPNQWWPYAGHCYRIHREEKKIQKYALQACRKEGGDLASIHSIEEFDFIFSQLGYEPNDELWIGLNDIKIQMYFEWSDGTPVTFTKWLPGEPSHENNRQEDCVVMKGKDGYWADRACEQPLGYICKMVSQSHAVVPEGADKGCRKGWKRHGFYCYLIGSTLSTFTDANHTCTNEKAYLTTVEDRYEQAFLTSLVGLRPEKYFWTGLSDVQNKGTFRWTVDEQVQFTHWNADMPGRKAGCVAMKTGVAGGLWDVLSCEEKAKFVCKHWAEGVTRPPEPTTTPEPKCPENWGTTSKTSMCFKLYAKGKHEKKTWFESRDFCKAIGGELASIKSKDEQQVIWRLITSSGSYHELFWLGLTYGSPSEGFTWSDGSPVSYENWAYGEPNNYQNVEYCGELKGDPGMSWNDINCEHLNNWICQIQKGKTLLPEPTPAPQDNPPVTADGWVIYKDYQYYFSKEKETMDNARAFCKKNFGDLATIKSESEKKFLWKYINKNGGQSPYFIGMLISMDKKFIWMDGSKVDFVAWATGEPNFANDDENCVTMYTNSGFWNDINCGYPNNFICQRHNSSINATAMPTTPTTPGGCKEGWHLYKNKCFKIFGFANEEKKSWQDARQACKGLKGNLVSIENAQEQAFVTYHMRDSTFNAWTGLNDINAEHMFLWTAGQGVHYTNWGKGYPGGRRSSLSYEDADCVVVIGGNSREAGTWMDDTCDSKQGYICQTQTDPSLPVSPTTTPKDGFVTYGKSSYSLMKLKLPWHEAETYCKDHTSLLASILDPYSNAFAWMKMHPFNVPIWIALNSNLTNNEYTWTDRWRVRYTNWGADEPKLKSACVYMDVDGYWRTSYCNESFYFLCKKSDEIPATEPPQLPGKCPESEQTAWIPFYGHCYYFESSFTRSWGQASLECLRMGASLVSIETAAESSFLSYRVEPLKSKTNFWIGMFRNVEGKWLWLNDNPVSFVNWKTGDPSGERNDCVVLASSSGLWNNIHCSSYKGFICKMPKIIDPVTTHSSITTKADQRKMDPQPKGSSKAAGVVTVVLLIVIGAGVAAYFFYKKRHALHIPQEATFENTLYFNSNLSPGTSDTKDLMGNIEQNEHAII
# Protocol: The stocks of fluorescent ligands (FAM-UNO, FAM-CSPGAK and FAM-CPMTDNE) in mQ water were stored at −20° C. […], 150 mM NaCl, 1 mM CaCl2, 0.1% Pluronic F-127, pH 7.4) on the day of experiment. The concentration of fluorescent ligands was determined by absorbance of FAM (E495=75000 M^−1 cm^−1).
# The recombinant mouse macrophage mannose receptor rmMMR/CD206 (R&D Systems, catalog number: 2535-MM-050) and recombinant mouse CD163 (R&D Systems, catalog number: 7435-CD-050) were reconstituted at 1 mg/ml in IB, aliquoted and stored at −20° C. To generate linearized version of cyclic FAM-UNO peptide, the peptide at 1 mM concentration was preincubated for 24 h at room temperature in a dark place with 3 mM DTT and diluted with IB 2×10^5 times before the FA assay. The control experiment with FAM-CPMTDNE peptide (FIG. 22) was performed to rule out the possibility of disulphide bond formation, which could affect the binding properties of linear peptides. Initially, the peptide was preincubated in DMSO for 4 days at room temperature to enhance the disulphide bond formation, and then diluted in IB buffer with 3 mM DTT, and the disappearance of preformed dimer was observed as a change in FA signal.
# In all experiments, FA signal measurements were done under pseudo first-order conditions with 50 nM singly labelled FAM peptides and 1 μM proteins. […] Assays were carried out in kinetic mode in a total volume of 30 μl at 25° C. on the PHERAstar (BMG Labtech, Germany) microplate reader using an optical module with excitation and emission filters of 485 nm (slit 10 nm) and 520 nm (slit 10 nm), respectively. Dual emission detection mode allows simultaneous recording of intensities that are parallel (l) and perpendicular (1) to the plane of excitation light. […] The background fluorescence (receptor and buffer components in the absence of fluorescent ligand) was subtracted independently from all intensity channels. FA signals at time t after initiation of binding reaction was calculated as parameters r(t) from the equation: […]
# [2] = tested on: intestinal tissue (CD209) and lymph nodes of healthy mice; experiment: Free peptide homing in healthy Balb/C mice; format: in vivo, mouse; conditions: 30 nmoles i.v., 2 h
# Protocol: A, Thirty nmoles of FAM-UNO were injected intravenously in healthy Balb/C mice. Peptide was allowed to circulate for 2 hours. Mice were then sacrificed and intestinal tissue was analyzed by immunofluorescence using rabbit anti-FAM (green) together with rat anti-CD209 (red) and counterstained with DAPI. B, Thirty nmoles of FAM-UNO were injected intravenously in mice bearing 4T1 tumors, 10 days after orthotopic inoculation of 10^6 Cells. Peptide was let to circulate for two hours, mice were then sacked and tumor and tissues analyzed by immunofluorescence using rabbit Anti-FAM (green) together with rat anti-CD209 (red) and counterstained with DAPI (Blue). Images in A and B were taken using the same imaging conditions. Scale bar: 50 μm (images in B are at the same scale as in A). Representative images from n=3 mice.
# Thirty nmoles of FAM-UNO were injected intravenously in healthy Balb/C female mice. Peptide was allowed to circulate for 2 hours. Mice were then sacrificed, and inguinal lymph node and kidney analyzed by immunofluorescence using rabbit anti-FAM together with rat anti-CD206 (red, 2901) and counterstained with DAPI (blue). FAM-UNO is absent from the healthy inguinal lymph node (left panel), while some CD206 is observed (2901). In the kidney (right panel), the FAM fluorescence signal is detected throughout the tissue. Scale bars: 100 μm. Representative images from n=3 mice.
Substance,change in fluorescence anisotropy (interaction) with mouse recombinant CD206 [1],homing to lymph nodes of healthy mice [2],recruitment to intestinal tissue (expresses CD209) of healthy mice [2]
FAM-CSPGAK: FAM-labeled linear CSPGAK (SEQ ID NO: 6) (not fully specified; FAM label),clear time-dependent increase of anisotropy,,
FAM-UNO: FAM-labeled UNO peptide CSPGAKVRC (SEQ ID NO: 1); 5(6)-carboxyfluorescein with 6-aminohexanoic acid spacer at the N-terminus ({FAM-Ahx}-CSPGAKVRC; cysteine pairing not given here),did not cause a change in the fluorescence anisotropy,did not home to the lymph nodes of healthy Balb/C mice,not recruited to intestinal tissue of healthy mice
